Test results as given in the nanobody polyreactivity screen of Harvey et al. (2022).

Experiment: yeast display, Sf9 membrane polyspecificity reagent, FACS + sequencing; frameworks hold sequencing errors
How it was run: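 Nanobodies from a synthetic yeast display library (Saccharomyces cerevisiae BJ5465), induced 36–48 hours with galactose, were stained 1 hour at 4 °C with 10% biotinylated, detergent-solubilized Sf9 membrane reagent, enriched on streptavidin microbeads, then FACS-sorted. Anti-HA (expression) and streptavidin (reagent binding) fluorescence set low and high (top ~1%) gates. Polyreactivity labels come from the gate of origin. Genes were colony-PCR amplified, MiSeq 2 × 250 sequenced and filtered by CDR length.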

| Sequence | polyreactivity (PSR sort gate) |
| --- | --- |
| QVQLVESGGGLVQAGGSLRLSCAASGIIFHFNDMGWTTQAPGKERELVAAISRRGSTYYADSVTGRFTISRDNAKNSVYLQMNSLKPEDTAVYYCAKYRGRVKTYNGGYDYWGQGTQVSVSS | low polyreactivity |
| QVQLVESGGGLVQAGGSLRLSCAASGIIFHFNDMGWYRLAPGKERELVAAITSGGSTNYADSVKGRFTISRDNAKKTVYLQMNSLKPEDTADYYCAARRGLRLFAYRHGYWGQGTQVTVSS | low polyreactivity |
| QVQLVESGGGLVQAGGSLRLSCAASGIIFHFNDMGWYRQAPGKERELVAAIDSTGSTNYADSVKGRFTISRDNAKNTVNLQMNSLKPEDTAVYYCAADWTLDPSYGYYADDYWGQGTQVTVSS | low polyreactivity |
| QVQLVESGGGLVQAGGSLRLSCAASGIIFIIYTMGWYRQSPGKERELVAAISWSGGSTYYADSVKGRFTISRDNAKNTVYLQMNSLKPEDTAVYYCAADVANWYGGGNSDYDHEYWGQGPQVTVSS | low polyreactivity |
| QVQLVESGGGLVQAGGSLRLSCAASGIIFISYDMGWSRQAPGKERELVARINWDGGSTYYADSVKGRFTISRDNAKNTVYLQMNSLKPEDTAVYYCAAGFVGTNYPVLGFSYEYWGQGTQVTVSS | low polyreactivity |
| QVQLVESGGGLVQAGGSLRLSCAASGIIFITYAMGWYRQAPGKERELVAAITNSGGGTYYADSVKGRFTISRDNAKNTVYLQMNILKPEATAVYYCAARKTAYGYRYDYWGQGTQVTVSS | high polyreactivity |
| QVQLVESGGGLVQAGGSLRLSCAASGIIFIYNAMGWYRQAPGKERELVGAIRRSGSPSYADSVKGRFTISRDNAKNTVYLQMNSLKPEDTAVYYCAADTSTWFGAYYLRDPYDYWGQGTQVTVSS | low polyreactivity |
| QVQLVESGGGLVQAGGSLRLSCAASGIIFIYYAMGWYRQAPGKERELVAAISQSGVNTYYADSVKGRFTISRDNAKNTVYLQMNSLKPEDTAVYYCAADRYGHFGYWGQGTQVTVSS | high polyreactivity |
| QVQLVESGGGLVQAGGSLRLSCAASGIIFKGYAMGWYRQAPGKERELVAGITRNGGGTYYADSVKGRFTISRDNAKNTVYLQMNSLKPEDTAVYYCAARWDYSYRYRLYYWGQGTQVTVSS | high polyreactivity |
| QVQLVESGGGLVQAGGSLRLSCAASGIIFKIYAMGWYRQAPGKERELVAAITRSGTRTYYADSVKGRFTISRDNAKNTVYLQMNSLKPEDTAVYYCNAYTTLAYDLDYWGQGTQVTVSS | high polyreactivity |
| QVQLVESGGGLVQAGGSLRLSCAASGIIFKPYAMGWYRPAPGKERQLVAAITVNGGTTYYADSVKGRFTISRDNAKKTVNVQMNSLKPEDPAFYYCNRGRPGGPSWYHYDYWGQGTEVTVSS | high polyreactivity |
| QVQLVESGGGLVQAGGSLRLSCAASGIIFKSYAKGWYRQAPGKARELVAAMSWIGGSTYYADSVKGRFTISRDNAKHTVYFQMTSLKPEATAVYYCNARQYRRSRMDYWGQGTQVTVSS | high polyreactivity |
| QVQLVESGGGLVQAGGSLRLSCAASGIIFKSYAMGWYRQAPGKERELVAAISSGGSTYYVDSVKGRFTISRDNAKNTVYLQMNSLKPEDTAVYYCNARYKRYSYDYWGHGTQVTVSS | high polyreactivity |
| QVQLVESGGGLVQAGGSLRLSCAASGIIFKSYAMGWYRQAPGKERELVAAITKRGGSTYYADSVKGRFTISRDNAKNTVYLQMNSLKPEDSAVYYCAAFAVPYDYWGQGTQVTVSS | high polyreactivity |
| QVQLVESGGGLVQAGGSLRLSCAASGIIFKVNAMGWYRQAPGKERELVAAISRRGGITYYADSVKGRFTISRDNAKNTVYLQMNSLKPEDSAVYYCAAAYSDYRFSTRYPYNYWGQGTQVTVSS | high polyreactivity |
| QVQLVESGGGLVQAGGSLRLSCAASGIIFKYYAMGWYRQAPGKERELVAAISRSSGSTYYADSVKGRFTISRDNAKNTVYLQMNSLKPEDTAVYYCAASGWPQKYDYWGQGTQVTVSS | high polyreactivity |
| QVQLVESGGGLVQAGGSLRLSCAASGIIFKYYAMGWYRQAPGKERELVAAISSRSGRTYYADSVKGRFTISRDNAKNTVYLQMNSLKPEDTAVYYCNVQVQRSYPYGYWGQGTQVTVSS | high polyreactivity |
